Measured values: patent publication US20180155451A1 (published 2018)

T1: FcγRIIa H (human, UniProt P12318 34-217)
T1 construct: extracellular domain; Soluble His-tagged extracellular domain expressed in FreeStyle293 cells; also called FcγRIIa type H; FcgRIIa H; not shown: His tag attached to the C terminus
T1 sequence (looked up): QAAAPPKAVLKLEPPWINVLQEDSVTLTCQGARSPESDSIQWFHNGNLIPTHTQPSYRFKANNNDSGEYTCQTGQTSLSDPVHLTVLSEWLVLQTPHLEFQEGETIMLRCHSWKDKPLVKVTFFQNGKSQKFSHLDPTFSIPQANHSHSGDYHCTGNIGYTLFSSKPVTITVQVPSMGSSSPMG

T2: FcγRIIb (human, UniProt P31994 43-217)
T2 construct: extracellular domain; Soluble His-tagged extracellular domain expressed in FreeStyle293 cells; also called FcgRIIb; 2b; not shown: His tag attached to the C terminus
T2 sequence (looked up): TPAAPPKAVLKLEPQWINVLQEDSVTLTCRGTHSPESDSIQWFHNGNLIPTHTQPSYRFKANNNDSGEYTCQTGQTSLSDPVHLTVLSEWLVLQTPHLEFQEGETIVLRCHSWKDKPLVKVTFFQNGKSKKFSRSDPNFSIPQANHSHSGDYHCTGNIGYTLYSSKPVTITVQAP

B1: GpH7-A5/GpH7-B3 variant P331_04F/GpL16-k0 (antibody, human IgG1, kappa)
heavy 1: not shown
heavy 2: not shown
light: DIVMTQSPLSLPVTPGEPASISCQASESLVHSNRNTYLHWYLQKPGQSPQLLIYKVSNRFSGVPDRFSGSGSGTDFTLKISRVEAEDVGVYYCSQNTHVPPTFGQGTKVEIERTVAAPSVFIFPPSDEQLKSGTASVVCLLNNFYPREAKVQWKVDNALQSGNSQESVTEQDSKDSTYSLSSTLTLSKADYEKHKVYACEVTHQGLSSPVTKSFNRGEC
notes: Heterodimerized anti-glypican-3 IgG1; mutation in the GpH7-B3 H chain only; also called He Ab
B2: GpH7-A5/GpH7-B3 variant A327_14T/GpL16-k0 (antibody, human IgG1, kappa)
heavy 1: not shown
heavy 2: not shown
light: B1 light
notes: as for B1
B3: GpH7-A5/GpH7-B3 variant N325_16H/GpL16-k0 (antibody, human IgG1, kappa)
heavy 1: not shown
heavy 2: not shown
light: B1 light
notes: as for B1
B4: GpH7-A5/GpH7-B3 variant A327_10E/GpL16-k0 (antibody, human IgG1, kappa)
heavy 1: not shown
heavy 2: not shown
light: B1 light
notes: as for B1
B5: GpH7-A5/GpH7-B3 variant L328_15Y/GpL16-k0 (antibody, human IgG1, kappa)
heavy 1: not shown
heavy 2: not shown
light: B1 light
notes: as for B1
B6: GpH7-A5/GpH7-B3 variant N325_15Y/GpL16-k0 (antibody, human IgG1, kappa)
heavy 1: not shown
heavy 2: not shown
light: B1 light
notes: as for B1
B7: GpH7-A5/GpH7-B3 variant A327_07I/GpL16-k0 (antibody, human IgG1, kappa)
heavy 1: not shown
heavy 2: not shown
light: B1 light
notes: as for B1
B8: GpH7-A5/GpH7-B3 variant P331_20W/GpL16-k0 (antibody, human IgG1, kappa)
heavy 1: not shown
heavy 2: not shown
light: B1 light
notes: as for B1
B9: GpH7-A5/GpH7-B3 variant A330_05P/GpL16-k0 (antibody, human IgG1, kappa)
heavy 1: not shown
heavy 2: not shown
light: B1 light
notes: as for B1
B10: GpH7-A5/GpH7-B3 variant L328_10E/GpL16-k0 (antibody, human IgG1, kappa)
heavy 1: not shown
heavy 2: not shown
light: B1 light
notes: as for B1
B11: GpH7-A5/GpH7-B3 variant P331_07I/GpL16-k0 (antibody, human IgG1, kappa)
heavy 1: not shown
heavy 2: not shown
light: B1 light
notes: as for B1
B12: GpH7-A5/GpH7-B3 variant P331_10E/GpL16-k0 (antibody, human IgG1, kappa)
heavy 1: not shown
heavy 2: not shown
light: B1 light
notes: as for B1
B13: GpH7-A5/GpH7-B3 variant P331_15Y/GpL16-k0 (antibody, human IgG1, kappa)
heavy 1: not shown
heavy 2: not shown
light: B1 light
notes: as for B1
B14: GpH7-A5/GpH7-B3 variant L328_04F/GpL16-k0 (antibody, human IgG1, kappa)
heavy 1: not shown
heavy 2: not shown
light: B1 light
notes: as for B1
B15: GpH7-A5/GpH7-B3 variant L328_09D/GpL16-k0 (antibody, human IgG1, kappa)
heavy 1: not shown
heavy 2: not shown
light: B1 light
notes: as for B1
B16: GpH7-A5/GpH7-B3 variant A327_08L/GpL16-k0 (antibody, human IgG1, kappa)
heavy 1: not shown
heavy 2: not shown
light: B1 light
notes: as for B1
B17: GpH7-A5/GpH7-B3 variant N325_13S/GpL16-k0 (antibody, human IgG1, kappa)
heavy 1: not shown
heavy 2: not shown
light: B1 light
notes: as for B1

Each binder was assayed against T1, FcγRIIa H (assay: SPR (Biacore); He/Con_2aH divided by He/Con_2b (FcγRIIb) of the same antibody).
Method: The heterodimerized antibodies He Abs in which one of the H chains was introduced with an alteration were assayed for their binding activities to each activating FcγR and inhibitory FcγR according to the method described in Example 4. […] The activating FcγRs in FIGS. 26, 27, 28, and 29 are FcγRIa, FcγRIIa (R), FcγRIIa (H), and FcγRIIIa, respectively.
(§1) Analysis of interaction between objective antibody and the FcγR was carried out using Biacore T100 (GE Healthcare). HBS-EP+ (GE Healthcare) was used as the running buffer, and the measurement temperature was set to 25° C. Chips produced by immobilizing the antigen peptide by the amine coupling method to a Series S Sencor Chip CM5 (GE Healthcare), or alternatively, chips produced by allowing preliminarily biotinylated antigen peptides to interact with and immobilize onto a Series S Sensor Chip SA (certified) (GE Healthcare) were used. Antibodies of interest were captured onto an antigen peptide-immobilized chip, and allowed to interact to each FcγR diluted with running buffer. To regenerate and repeatedly use the chip, the antibodies captured on the chip were washed off by reacting 10 mM glycine-HCl, pH 1.5.

**Q.** Which He_2aH/2b does the source give for B1 here?
**A.** 0.77 ratio

**Q.** Which He_2aH/2b does the source give for B2 here?
**A.** 0.51 ratio

**Q.** For B3, which He_2aH/2b is on record?
**A.** 0.68 ratio

**Q.** How did the He_2aH/2b turn out when B4 was run?
**A.** 0.65 ratio

**Q.** With B5 as the binder, how does the He_2aH/2b read?
**A.** 0.47 ratio

**Q.** How did the He_2aH/2b turn out when B6 was run?
**A.** 0.41 ratio

**Q.** B7 was tested. Which He_2aH/2b did it give?
**A.** 0.46 ratio

**Q.** How did the He_2aH/2b turn out when B8 was run?
**A.** 0.75 ratio

**Q.** How did the He_2aH/2b turn out when B9 was run?
**A.** 0.63 ratio

**Q.** B10 was tested. Which He_2aH/2b did it give?
**A.** 0.32 ratio

**Q.** For B11, which He_2aH/2b is on record?
**A.** 0.68 ratio

**Q.** With B12 as the binder, how does the He_2aH/2b read?
**A.** 0.75 ratio

**Q.** B13 was tested. Which He_2aH/2b did it give?
**A.** 0.75 ratio

**Q.** B14 was tested. Which He_2aH/2b did it give?
**A.** 0.33 ratio

**Q.** How did the He_2aH/2b turn out when B15 was run?
**A.** 0.29 ratio

**Q.** With B16 as the binder, how does the He_2aH/2b read?
**A.** 0.74 ratio

**Q.** B17 was tested. Which He_2aH/2b did it give?
**A.** 0.45 ratio

Each binder was assayed against T1, FcγRIIa H (assay: SPR (Biacore), captured antibody, FcγR analyte; relative to GpH7-A5/GpH7-B3/GpL16-k0 = 100).
Method: as §1
(§2) The FcγR-binding activity of each antibody was assessed primarily using as an indicator the FcγR-binding activity and dissociation constant for FcγR.

**Q.** For B1, which He/Con_2aH is on record?
**A.** 84.7 relative (control = 100)

**Q.** How did the He/Con_2aH turn out when B2 was run?
**A.** 45.6 relative (control = 100)

**Q.** For B3, which He/Con_2aH is on record?
**A.** 48 relative (control = 100)

**Q.** Which He/Con_2aH does the source give for B4 here?
**A.** 91.3 relative (control = 100)

**Q.** How did the He/Con_2aH turn out when B5 was run?
**A.** 90 relative (control = 100)

**Q.** For B6, which He/Con_2aH is on record?
**A.** 41.2 relative (control = 100)

**Q.** With B7 as the binder, how does the He/Con_2aH read?
**A.** 58.4 relative (control = 100)

**Q.** Which He/Con_2aH does the source give for B8 here?
**A.** 82.8 relative (control = 100)

**Q.** For B9, which He/Con_2aH is on record?
**A.** 85.7 relative (control = 100)

**Q.** Which He/Con_2aH does the source give for B10 here?
**A.** 55.5 relative (control = 100)

**Q.** With B11 as the binder, how does the He/Con_2aH read?
**A.** 77.4 relative (control = 100)

**Q.** With B12 as the binder, how does the He/Con_2aH read?
**A.** 87.1 relative (control = 100)

**Q.** With B13 as the binder, how does the He/Con_2aH read?
**A.** 86 relative (control = 100)

**Q.** With B14 as the binder, how does the He/Con_2aH read?
**A.** 71.7 relative (control = 100)

**Q.** With B15 as the binder, how does the He/Con_2aH read?
**A.** 58.5 relative (control = 100)

**Q.** How did the He/Con_2aH turn out when B16 was run?
**A.** 46.9 relative (control = 100)

**Q.** How did the He/Con_2aH turn out when B17 was run?
**A.** 79.7 relative (control = 100)

Each binder was assayed against T2, FcγRIIb in the same assay as above.
Method: as §1, §2

**Q.** B1 was tested. Which He/Con_2b did it give?
**A.** 110 relative (control = 100)

**Q.** How did the He/Con_2b turn out when B2 was run?
**A.** 89.4 relative (control = 100)

**Q.** How did the He/Con_2b turn out when B3 was run?
**A.** 70.1 relative (control = 100)

**Q.** With B4 as the binder, how does the He/Con_2b read?
**A.** 140 relative (control = 100)

**Q.** How did the He/Con_2b turn out when B5 was run?
**A.** 193 relative (control = 100)

**Q.** With B6 as the binder, how does the He/Con_2b read?
**A.** 99.5 relative (control = 100)

**Q.** With B7 as the binder, how does the He/Con_2b read?
**A.** 127 relative (control = 100)

**Q.** Which He/Con_2b does the source give for B8 here?
**A.** 111 relative (control = 100)

**Q.** B9 was tested. Which He/Con_2b did it give?
**A.** 137 relative (control = 100)

**Q.** For B10, which He/Con_2b is on record?
**A.** 172 relative (control = 100)

**Q.** B11 was tested. Which He/Con_2b did it give?
**A.** 114 relative (control = 100)

**Q.** With B12 as the binder, how does the He/Con_2b read?
**A.** 116 relative (control = 100)

**Q.** Which He/Con_2b does the source give for B13 here?
**A.** 114 relative (control = 100)

**Q.** With B14 as the binder, how does the He/Con_2b read?
**A.** 219 relative (control = 100)

**Q.** For B15, which He/Con_2b is on record?
**A.** 199 relative (control = 100)

**Q.** B16 was tested. Which He/Con_2b did it give?
**A.** 63.1 relative (control = 100)

**Q.** For B17, which He/Con_2b is on record?
**A.** 177 relative (control = 100)
